Series [1] is described as follows: in vivo. Set-up: species or system nude mice. The conditions noted are these: nude, mouse, iv. From the text:
Tumor uptake was 6.7[…]% ID/g.

Series [2] relates to 143B tumor. Description: microPET/CT imaging, time activity curves in 143B tumor bearing nude mice. The class given is in vivo. How it is done: (§1) The tumor uptake of [^64Cu]DOTA-EB-TMTP1 was increased as time goes by, and reached the plateau of 6.5±0.8% ID/g at 8 h after injection.
Test in series [3]: as above
The class given is in vivo. The conditions noted are these: mouse, in vivo, iv; 8 h after i.v. injection, 143B tumor bearing nude mice; read-out: tumor uptake (plateau, PET time activity curve). Here is the method:
as §1

A short description of series [4]: cell uptake of [^64Cu]DOTA-EB-TMTP1. The settings on record: n=4, mean±SD; uptake ratio increased with time. The class given is cell-based.
Series [5] has as its system 143B cells. Description: inhibition of [^64Cu]DOTA-EB-TMTP1 binding to 143B cells by TMTP1. The settings on record: TMTP1 competing with [^64Cu]DOTA-EB-TMTP1 on 143B cells; unit inferred.
In series [6] the test system is highly metastatic tumor cells. The conditions noted are these: literature, PLOS One (2012) 7(9): e42685; cited from earlier work.

Non-standard residues stand in square brackets, D forms with d. Residues, ends and D or L forms follow the SMILES beside them. ξ: configuration not given here. *: point of attachment. X1 = Cc1cc(-c2ccc(N*)c(C)c2)ccc1N=Nc1ccc2c(S(=O)(=O)O)cc(S(=O)(=O)O)c(N)c2c1O; DOTA = O=C(O)CN1CCN(CC(=O)O)CCN(CC(=O)*)CCN(CC(=O)O)CC1; ξE = NC(CCC(=O)O)C(=O)O

In turn, `Cc1cc(-c2ccc(NC(=O)CCC(NC(=O)CN3CCN(CC(=O)O)CCN(CC(=O)O)CCN(CC(=O)O)CC3)C(=O)NCC(=O)N[C@@H](CC(N)=O)C(=O)N[C@H](C(=O)N[C@H](C(=O)N[C@@H](CCCNC(=N)N)C(=O)N[C@@H](CCC(N)=O)C(=O)O)C(C)C)C(C)C)c(C)c2)ccc1N=Nc1ccc2c(S(=O)(=O)O)cc(S(=O)(=O)O)c(N)c2c1O` (some centres unmarked) [[^64Cu]DOTA-EB-TMTP1, metal not drawn] ({DOTA}-[ξE](X1)GNVVRQ-OH) registered a tissue uptake at 48 h in series [1] of 6.7 %ID/g. The “tumor uptake (plateau, PET time activity curve)” value in series [2] (8 h after i.v. injection, 143B tumor bearing nude mice) is reported as 6.5%±0.8 % ID/g. For the same molecule, in series [2] (mouse, in vivo), the “circulation time in the body” value is reported as “long circulation time” and the pharmacokinetic properties entry was “favorable pharmacokinetic properties”. Also, in series [3], the tissue uptake at 8 h came to 6.5 ± 0.8 %ID/g. The “time at which cell uptake ratio reached the peak” value in series [4] turned out to be 45 min.
As usually defined, the IC50 is the concentration that inhibits the measured activity by half. On to NVVRQ [TMTP1], for which, in series [5], the IC50 worked out at 211 nM. Also, the “affinity for a series of highly metastatic tumor cells” value in series [6] is “high affinity”.
